From the supplement of paper PMC10567573
± gives the standard deviation.

Test: protein stability index of a GFP-peptide fusion (GPS, HEK-293T) (PSI 1-6); higher = more stable
[1] = treatment: DMSO, c terminus: a fixed tail appended
[2] = treatment: MLN4924 1 uM, 8 h, c terminus: a fixed tail appended
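Note: 24-mer peptide tiles fused after GFP, lentivirally expressed, FACS-sorted into six equal bins by GFP/DsRed ratio, decoded by Illumina sequencing, PSI is the read-weighted mean bin number.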

DAVPPGMESLISAPLVKTLEKEEE [CDC25B]
protein stability index [1]: 5.44 ± 0.21
protein stability index [2]: 5.58 ± 0.33

EQSLLSRWNPWSTEVPYATFTEHP [TPRG1]
protein stability index [1]: 3.13 ± 0.22
protein stability index [2]: 3.06 ± 0.16

RTAFLWRGNVVLRAQMIRNEYRKL [TRIM43]
protein stability index [1]: 2.66 ± 0.29
protein stability index [2]: 2.51 ± 0.29

SQSSYLSQHRRIHSGEKPFICKEC [ZNF232]
protein stability index [1]: 3.36 ± 0.33
protein stability index [2]: 3.67 ± 0.44

IVITGDADIDHDQALAQAIKEAKE [EPB41L3]
protein stability index [1]: 2.85 ± 0.58
protein stability index [2]: 3.45 ± 0.48

ISLTCVSVAFAVAWFLPMPQKSLF [SLC19A2]
protein stability index [1]: 3.15 ± 0.18
protein stability index [2]: 3.19 ± 0.17

CKARMERDGYGMTPLLAASVTGHT [FEM1A]
protein stability index [1]: 2.9 ± 0.32
protein stability index [2]: 2.87 ± 0.2

QELEEEIKELYENFCKHNGSKNVF [ATL3]
protein stability index [1]: 3.02 ± 0.32
protein stability index [2]: 3.57 ± 0.48

MEEVCGGEKPYLSPDILEEKHCEF [ATL3]
protein stability index [1]: 5.15 ± 0.29
protein stability index [2]: 5.01 ± 0.14

VLRCQLSAEEVRFPVSVTQQSPAA [C2CD2L]
protein stability index [1]: 3.3 ± 0.34
protein stability index [2]: 3.45 ± 0.23

VGKVEELIESEAPPKASEQETAKE [C18orf25]
protein stability index [1]: 5.53 ± 0.28
protein stability index [2]: 5.6 ± 0.27

DVMLEELSLLTNRGSKMFKLRQMR [MYOZ1]
protein stability index [1]: 2.48 ± 0.19
protein stability index [2]: 2.67 ± 0.29

SPQIQRSAHRALYRRHVLGIVLQG [TMEM175]
protein stability index [1]: 2.3 ± 0.19
protein stability index [2]: 2.42 ± 0.36

STTDLRGTQFDYERGKGESTEDR [ZSWIM9]
protein stability index (treatment: DMSO, c terminus: native): 5.28 ± 0.34
protein stability index (treatment: MLN4924 1 uM, 8 h, c terminus: native): 5.43 ± 0.11

RYCQCNPDDSTSEDGIHTLTCALM [PSD2]
protein stability index [1]: 3.96 ± 0.32
protein stability index [2]: 4.09 ± 0.18

YFKCVQKDIQPYMRRMVATWMLEV [CCND2]
protein stability index [1]: 2.71 ± 0.55
protein stability index [2]: 2.4 ± 0.45

KLAQALHEMREQHDAQVRLYKEEL [LMNB1]
protein stability index [1]: 2.66 ± 0.3
protein stability index [2]: 2.7 ± 0.22

EEGLADEEKKLRRSQHARKETEFL [STK38L]
protein stability index [1]: 5.33 ± 0.08
protein stability index [2]: 5.2 ± 0.39

GCSSTQGNGRPGRPSQYRPDGLRS [LCOR]
protein stability index [1]: 4.07 ± 0.085
protein stability index [2]: 4.14 ± 0.17

ENYETVISLALFVLPKPKVISCLE [ZNF75A]
protein stability index [1]: 3.11 ± 0.47
protein stability index [2]: 3.46 ± 0.28

LLHLHQTAHADEFDCPSELQHTQE [STEAP1]
protein stability index [1]: 4.66 ± 0.11
protein stability index [2]: 4.78 ± 0.11

QQPPRLLIVHIALPSWADICTNLC [M1AP]
protein stability index [1]: 3 ± 0.3
protein stability index [2]: 2.74 ± 0.51

KAQAKVGSLDNAHHVPGGGNVKID [MAP2]
protein stability index [1]: 4.85 ± 0.12
protein stability index [2]: 4.87 ± 0.34

NILFYVVGLRNTLTRIRKWIEHSK [GLT8D2]
protein stability index [1]: 2.59 ± 0.18
protein stability index [2]: 2.76 ± 0.46

SLARLQQLLFVIFLLLYLFTLGTN [OR10K2]
protein stability index [1]: 2.78 ± 0.51
protein stability index [2]: 2.13 ± 0.53

MAEAEGVPTTPGPASGSTFRGRRD [RETREG3]
protein stability index [1]: 5.12 ± 0.39
protein stability index [2]: 5.22 ± 0.14

LGGFSHWGRLTSYSGGGYYLDLPG [PKD2L1]
protein stability index [1]: 2.47 ± 0.19
protein stability index [2]: 2.74 ± 0.25

CHSFAAAADGPTVCCNPYHFSRLC [SMAD6]
protein stability index [1]: 2.4 ± 0.35
protein stability index [2]: 2.22 ± 0.2

LISSGMSSHKQGHTSSEYDMLREM [TAF7L]
protein stability index [1]: 3.75 ± 0.23
protein stability index [2]: 3.84 ± 0.19

SRSLLTGGYNLASVSVWDLAAPSL [TLE6]
protein stability index [1]: 2.38 ± 0.27
protein stability index [2]: 2.29 ± 0.14

DGYGMTPLLSASVTGHTNIVDFLT [FEM1C]
protein stability index [1]: 3.01 ± 0.27
protein stability index [2]: 3.1 ± 0.28

PQLASLCLDTIDKSTMDAISAEGF [BTBD1]
protein stability index [1]: 3.98 ± 0.16
protein stability index [2]: 3.99 ± 0.057

DLTFAPDGSLILVSASRDKTLRVW [WSB1]
protein stability index [1]: 2.32 ± 0.31
protein stability index [2]: 2.37 ± 0.099

APKDSAPQDLAPQVSAHHRSQESL [TBC1D10A]
protein stability index [1]: 5.36 ± 0.2
protein stability index [2]: 5.38 ± 0.14

CEETGELFEEPAPQALATRALPCP [FCHSD1]
protein stability index [1]: 4.95 ± 0.2
protein stability index [2]: 4.9 ± 0.24

CQEWYARRHCPLPQATFWGLVTPR [SOAT2]
protein stability index [1]: 2.32 ± 0.23
protein stability index [2]: 2.25 ± 0.54
